Legend:
human FcγRIIa(R) = target: T1, human FcγRIIa(R) (human, UniProt P12318 36-217); assay: SPR (Biacore), captured antibody, FcγR analyte; bound/captured amount vs control x100
T1 construct: also called FcgRIIaR; FcγRIIa type R
T1 chain: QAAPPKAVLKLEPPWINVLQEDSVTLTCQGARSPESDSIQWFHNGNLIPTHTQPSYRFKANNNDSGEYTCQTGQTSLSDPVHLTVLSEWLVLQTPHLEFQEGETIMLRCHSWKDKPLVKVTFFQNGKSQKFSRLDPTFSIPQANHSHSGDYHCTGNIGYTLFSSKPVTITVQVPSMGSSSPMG
Description: Interaction between each modified antibody and Fcγ receptor prepared in the manner described above was analyzed using the Biacore T100 (GE Healthcare), Biacore T200 (GE Healthcare), Biacore A100 or Biacore 4000. HBS-EP+ (GE Healthcare) was used for the running buffer, and measurements were carried out at 25° C. The chips used were chips in which antigen peptides, Protein A (Thermo Scientific), Protein A/G (Thermo Scientific) or Protein L (ACTIGEN or BioVision) were immobilized on the Series S Sensor Chip CM5 (GE Healthcare) or Series S Sensor Chip CM4 (GE Healthcare) by amine coupling, or chips in which preliminarily biotinylated antigen peptides were allowed to interact and then immobilized on the Series S Sensor Chip SA (certified) (GE Healthcare). The target antibodies were captured on these sensor chips, Fcγ receptor diluted with the running buffer was allowed to interact, followed by measurement of the amount of bound antibody. The amounts bound were compared between antibodies. However, since the amount of Fcγ receptor bound depends on the amount of captured antibody, the values used for comparison were first corrected by dividing the amount of Fcγ receptor bound by the captured amount of each antibody. Through reaction with 10 mM glycine-HCl at pH 1.5, the sensor chips were regenerated by washing off antibody captured on the sensor chips and used repeatedly.

human FcγRIIb [1] = target: T2, human FcγRIIb (human, UniProt P31994 43-217, limits assumed); assay: SPR (Biacore), antibody captured on Protein L, human FcgR as analyte, pH 7.4, 25 C; amount normalised to captured antibody
T2 construct: also called hFcgRIIb; FcγIIB
T2 sequence: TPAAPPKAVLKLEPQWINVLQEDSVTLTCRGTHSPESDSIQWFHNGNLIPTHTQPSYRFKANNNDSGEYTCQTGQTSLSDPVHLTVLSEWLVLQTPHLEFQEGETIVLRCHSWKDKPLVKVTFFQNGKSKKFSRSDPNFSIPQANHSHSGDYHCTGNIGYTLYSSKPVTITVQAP
Description: (§1) Binding activity between the antibodies and human FcγRIa, FcγRIIa(H), FcγRIIa(R), FcγRIIb and FcγRIIIa(F) (hereinafter referred to as human FcγRs) was evaluated using the Biacore T100 or T200 (GE Healthcare). The antibodies being tested were captured by Protein L (ACTIGEN) that was immobilized in suitable amounts on the CM4 Sensor Chip (GE Healthcare) by amine coupling. Next, the diluted human FcγRs and a running buffer used as a blank were injected to allow interaction with the antibodies captured on the sensor chip. A buffer consisting of 20 mmol/L ACES, 150 mmol/L NaCl and 0.05% (w/v) Tween 20 (pH 7.4) was used for the running buffer, and this buffer was also used to dilute the human FcγRs. 10 mmol/L glycine-HCl (pH 1.5) was used to regenerate the sensor chip. All measurements were carried out at 25° C.
(§2) Binding activity to human FcγRs can be represented by the relative binding activity to human FcγRs. Antibody was captured by Protein L, and the amount of change in a sensorgram before and after the antibody was captured was defined as X1. Next, human FcγRs were allowed to interact with the antibody, and the value obtained by subtracting binding activity of human FcγRs represented as the amount of change in a sensorgram before and after allowing the running buffer to interact with antibody captured by Protein L (ΔA2) from the value obtained by multiplying by 1500 the value obtained by dividing the binding activity of human FcγRs represented as the amount of change in a sensorgram before and after that interaction (ΔA1) by the captured amount (X) of each antibody, was divided by the captured amount of each antibody (X) followed by multiplying by 1500 to obtain the binding activity of the human FcγRs (Y) (Equation 2).

human FcγRIIIa(F) = target: T3, human FcγRIIIa(F) (human, UniProt P08637 17-208, limits assumed); assay: as above
T3 construct: also called hFcgRIIIa(F); allotype F158
T3 sequence (P08637 other isoform, or with tags, fused parts or gaps limits assumed): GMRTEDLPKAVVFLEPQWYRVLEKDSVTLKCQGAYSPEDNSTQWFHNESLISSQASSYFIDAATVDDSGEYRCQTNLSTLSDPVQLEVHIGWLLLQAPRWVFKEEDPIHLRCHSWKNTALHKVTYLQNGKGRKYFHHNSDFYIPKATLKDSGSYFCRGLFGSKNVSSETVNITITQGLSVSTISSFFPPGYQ
Description: as §1, §2

human FcγRIIa type R [2] = target: T4, human FcγRIIa type R (human, UniProt P12318 36-217); assay: SPR (Biacore), captured antibody, FcγR as analyte, 25 C
T4 construct: also called FcγRIIaR; FcγRIIa(R)
T4 chain: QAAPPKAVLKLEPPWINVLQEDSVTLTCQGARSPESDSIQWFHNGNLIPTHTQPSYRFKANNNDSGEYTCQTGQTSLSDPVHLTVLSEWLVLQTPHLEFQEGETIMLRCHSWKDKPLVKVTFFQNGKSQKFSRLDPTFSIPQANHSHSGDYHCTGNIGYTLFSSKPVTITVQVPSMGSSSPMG
Excerpt: (§3) Furthermore, KD(IIaR)/KD(IIb) and KD(IIaH)/KD(IIb) in the table respectively represent the value obtained by dividing the KD value of each variant for FcγRIIaR by the KD value of each variant for FcγRIIb, and the value obtained by dividing the KD value of each variant for FcγRIIaH by the KD value of each variant for FcγRIIb.

human FcγRIIb [3] = target: T5, human FcγRIIb (human, UniProt P31994 43-217, limits assumed); assay: SPR KD for FcγRIIb of parent IL6R-B3/IL6R-L divided by that of this variant
T5 construct: also called FcγIIB; hFcgRIIb
T5 sequence: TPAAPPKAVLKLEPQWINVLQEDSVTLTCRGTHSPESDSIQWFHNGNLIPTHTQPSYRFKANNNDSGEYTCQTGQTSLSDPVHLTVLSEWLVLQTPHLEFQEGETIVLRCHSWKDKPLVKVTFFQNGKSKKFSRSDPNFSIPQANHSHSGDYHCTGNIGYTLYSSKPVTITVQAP
Excerpt: as §3

human FcγRIIb [4] = target: T5, human FcγRIIb; assay: ratio of this variant's SPR KD for FcγRIIaR to its KD for FcγRIIb
Excerpt: as §3

human FcγRIIa type R [5] = target: T4, human FcγRIIa type R; assay: SPR KD of this variant's stronger FcγRIIa allotype binding divided by that of parent IL6R-B3/IL6R-L
Excerpt: as §3

human FcγRIIb [6] = target: T5, human FcγRIIb; assay: ratio of this variant's SPR KD for FcγRIIaH to its KD for FcγRIIb
Excerpt: as §3

human FcRn = target: T6, human FcRn (human); assay: SPR (Biacore), antibody captured by Protein L, human FcRn as analyte, pH 7.0
T6 construct: Soluble human FcRn complexed with β2-microglobulin; also called hFcRn; soluble human FcRn complexed with β2-microglobulin
T6 sequence (chain, as listed by the source limits assumed, chain 1 of 2): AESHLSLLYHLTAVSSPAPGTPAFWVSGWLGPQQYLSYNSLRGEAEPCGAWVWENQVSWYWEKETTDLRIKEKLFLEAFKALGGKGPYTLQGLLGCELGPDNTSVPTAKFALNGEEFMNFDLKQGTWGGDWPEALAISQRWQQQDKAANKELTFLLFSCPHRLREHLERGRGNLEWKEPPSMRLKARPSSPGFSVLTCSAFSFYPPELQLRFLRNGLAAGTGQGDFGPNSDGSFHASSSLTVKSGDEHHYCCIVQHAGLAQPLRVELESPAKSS
T6 sequence (P61769 21-119 limits assumed, chain 2 of 2): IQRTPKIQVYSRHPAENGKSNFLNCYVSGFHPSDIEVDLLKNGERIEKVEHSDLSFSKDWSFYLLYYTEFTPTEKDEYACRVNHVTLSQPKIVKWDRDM
Description: A kinetic analysis of binding between human FcRn and the aforementioned antibodies was carried out using the Biacore T100 or T200 (GE Healthcare). The antibodies being tested were captured on the CM4 Sensor Chip (GE Healthcare) on which a suitable amount of Protein L (ACTIGEN) was suitably immobilized by amine coupling. Next, diluted human FcRn and a running buffer used as a blank were injected to allow the human FcRn to interact with the antibody captured on the sensor chip. A buffer consisting of 50 mmol/L sodium phosphate, 150 mmol/L NaCl and 0.05% (w/v) Tween 20 (pH 7.0 or pH 7.4) was used for the running buffer, and each buffer was also used to dilute the human FcRn. 10 mmol/L glycine-HCl (pH 1.5) was used to regenerate the sensor chip. All measurements of binding were carried out at 25° C. The KD(M) of each antibody to human FcRn was calculated based on kinetics parameters, i.e., the association rate constant ka (1/Ms) and the dissociation rate constant kd (1/s) calculated from a sensorgram obtained by the measurement. The Biacore T100 or T200 Evaluation Software (GE Healthcare) was used to calculate each parameter.

B1: GpH7-B3 G237P/GpL16-k0 (antibody, human IgG1)
heavy: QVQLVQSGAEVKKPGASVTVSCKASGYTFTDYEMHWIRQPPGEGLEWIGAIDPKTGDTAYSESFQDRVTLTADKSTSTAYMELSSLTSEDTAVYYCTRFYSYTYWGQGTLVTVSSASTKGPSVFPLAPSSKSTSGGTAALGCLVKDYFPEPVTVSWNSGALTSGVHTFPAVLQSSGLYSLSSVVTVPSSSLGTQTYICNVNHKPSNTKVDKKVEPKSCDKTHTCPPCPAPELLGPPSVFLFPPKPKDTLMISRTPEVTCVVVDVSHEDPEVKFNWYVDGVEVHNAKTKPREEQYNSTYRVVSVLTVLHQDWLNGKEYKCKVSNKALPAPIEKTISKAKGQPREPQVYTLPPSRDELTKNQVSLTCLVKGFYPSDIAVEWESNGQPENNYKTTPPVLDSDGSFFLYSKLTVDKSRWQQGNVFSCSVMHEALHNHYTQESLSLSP
light: DIVMTQSPLSLPVTPGEPASISCQASESLVHSNRNTYLHWYLQKPGQSPQLLIYKVSNRFSGVPDRFSGSGSGTDFTLKISRVEAEDVGVYYCSQNTHVPPTFGQGTKVEIE
notes: B3 variant of anti-glypican-3 IgG1; substitution in EU numbering; also called B3 variant
relative binding activity (human FcγRIIa(R)): 8 % of GpH7-B3/GpL16-k0

B2: GpH7-B3 S239R/GpL16-k0 (antibody, human IgG1)
heavy: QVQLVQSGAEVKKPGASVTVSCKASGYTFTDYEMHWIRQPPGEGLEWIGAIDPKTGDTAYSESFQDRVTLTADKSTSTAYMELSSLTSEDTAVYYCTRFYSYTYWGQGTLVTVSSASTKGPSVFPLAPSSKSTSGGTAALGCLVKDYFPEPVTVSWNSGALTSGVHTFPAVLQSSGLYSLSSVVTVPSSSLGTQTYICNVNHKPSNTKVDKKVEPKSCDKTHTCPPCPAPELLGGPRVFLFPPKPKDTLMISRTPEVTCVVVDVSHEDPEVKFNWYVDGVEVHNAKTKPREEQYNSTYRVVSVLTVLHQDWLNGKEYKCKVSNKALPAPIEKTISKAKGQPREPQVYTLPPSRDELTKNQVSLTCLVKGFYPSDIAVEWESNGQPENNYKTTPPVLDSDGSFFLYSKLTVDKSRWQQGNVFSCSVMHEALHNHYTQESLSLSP
light: DIVMTQSPLSLPVTPGEPASISCQASESLVHSNRNTYLHWYLQKPGQSPQLLIYKVSNRFSGVPDRFSGSGSGTDFTLKISRVEAEDVGVYYCSQNTHVPPTFGQGTKVEIE
notes: as for B1
relative binding activity (human FcγRIIa(R)): 8 % of GpH7-B3/GpL16-k0

B3: antibody containing VH3-IgG1-F1324 for the heavy chain and L(WT)-CK for the light chain (antibody)
heavy: QVQLQESGPGLVKPSETLSLTCAVSGHSISHDHAWSWVRQPPGEGLEWIGFISYSGITNYNPSLQGRVTISRDNSKNTLYLQMNSLRAEDTAVYYCARSLARTTAMDYWGEGTLVTVSSASTKGPSVFPLAPSSKSTSGGTAALGCLVKDYFPEPVTVSWNSGALTSGVHTFPAVLQSSGLYSLSSVVTVPSSSLGTQTYICNVNHKPSNTKVDKKVEPKSCDKTHTCPPCPAPEAAGGPSVFLFPPKPKDTLYISRTPEVTCVVVDVSHEDPEVKFNWYVDGVEVHNAKTKPREEQYNSTYRVVSVLTVLHQDWLNGKEYKCKVSNKALPAPIEKTISKAKGQPREPQVYTLPPSRDELTKNQVSLTCLVKGFYPSDIAVEWESNGQPENNYKTTPPVLDSDGSFFLYSKLTVDKSRWQQGNVFSCSVMHEALHYHVTQKSLSLSP
light: not shown
BINDING AMOUNT (RU) (human FcγRIIb [1]): 3.85 RU | BINDING AMOUNT (RU) (human FcγRIIIa(F)): 5.83 RU

B4: IL6R-BP144/IL6R-L (antibody, human IgG1)
heavy: QVQLQESGPGLVKPSETLSLTCAVSGHSISHDHAWSWVRQPPGEGLEWIGFISYSGITNYNPSLQGRVTISRDNSKNTLYLQMNSLRAEDTAVYYCARSLARTTAMDYWGEGTLVTVSSASTKGPSVFPLAPSSKSTSGGTAALGCLVKDYFPEPVTVSWNSGALTSGVHTFPAVLQSSGLYSLSSVVTVPSSSLGTQTYICNVNHKPSNTKVDKKVEPKSCDKTHTCPPCPAPELLGDDSVFLFPPKPKDTLMISRTPEVTCVVVDVSHEDPEVKFNWYVDGVEVHNAKTKPREEQYNSTYRVVSVLTVLHQDWLNGKEYKCKVSNAALPAPIEKTISKAKGQPREPQVYTLPPSRDELTKNQVSLTCLVKGFYPSDIAVEWESNGQPENNYKTTPPVLDSDGSFFLYSKLTVDKSRWQQGNVFSCSVMHEALHNHYTQESLSLSP
light: DIQMTQSPSSLSASVGDRVTITCRASQDISSYLNWYQQKPGKAPKLLIYYTSRLHSGVPSRFSGSGSGTDFTFTISSLQPEDIATYYCQQGNTLPYTFGQGTKVEIK
notes: copies: 2 + 2
Kd (human FcγRIIa type R [2]): 2900 nM | KD(IIb) of the parent polypeptide/KD(IIb) of the altered polypeptide (human FcγRIIb [3]): 5.9 | KD (IIaR)/KD (IIb) (human FcγRIIb [4]): 8.7 | KD value for the stronger of the FcγRIIaR- and FcγRIIaH-binding activities of the variant/that of the parent polypeptide (human FcγRIIa type R [5]): 6.9 | KD (IIaH)/KD (IIb) (human FcγRIIb [6]): 45.8

B5: IgG1-F1369 (antibody, name in EU numbering)
heavy: QVQLQESGPGLVKPSETLSLTCAVSGHSISHDHAWSWVRQPPGEGLEWIGFISYSGITNYNPSLQGRVTISRDNSKNTLYLQMNSLRAEDTAVYYCARSLARTTAMDYWGEGTLVTVSSASTKGPSVFPLAPSSKSTSGGTAALGCLVKDYFPEPVTVSWNSGALTSGVHTFPAVLQSSGLYSLSSVVTVPSSSLGTQTYICNVNHKPSNTKVDKKVEPKSCDKTHTCPPCPAPELRGGPKVFLFPPKPKDTLYITREPEVTCVVVDVSHEDPEVKFNWYVDGVEVHNAKTKPREEQYNSTYRVVSVLTVLHQDWLNGKEYKCKVSNKALPAPIEKTISKAKGQPREPQVYTLPPSRDELTKNQVSLTCLVKGFYPSDIAVEWESNGQPENNYKTTPPVLDSDGSFFLYSKLTVDKSRWQQGNVFSCSVMHEALHYHFTRKELSLSP
light: not shown
notes: light chain L(WT)-CK; copies: 2 + 2
Kd (human FcRn): 76 nM

Source: patent US20140105889A1 (published 2014)
